Assay results published in patent publication US7271245B2, “Methods and compositions for inhibition of metastasis” (The Scripps Research Institute, priority 2004, dated 2007).

Key:
[1] = system: BMS human breast cancer cells; assay: Tumor cell adhesion under stationary conditions; assay type: cell-based; settings: 3 μM scFv
Procedure: FIGS. 3A, 3B, 3C, 3D, 3E. scFv Bc-12 and Bc-15 inhibit αvβ3 mediated adhesive breast cancer cell functions. (A) Adhesion of BMS human breast cancer cells to fibrinogen (Fg), vitronectin (VN) or type I collagen (Col I) in the absence or presence of 3 μM Bc-12, Bc-15 or their RGE mutants Mut-12, Mut-15, compared to 200 μM GRGDSPK peptide (SEQ ID NO: 11). Protein coating concentrations: 10 μg/ml (VN, Col I) or 20 μg/ml (Fg). Adhesion time: 30 min at 37° C. (B) Effect of scFvs on haptotactic BMS cell migration toward a fibrinogen substrate (16 hrs at 37° C. in transwell chambers with or without 2 μM Bc-12, Bc-15 or their RGE mutants Mut-12 or Mut-15, compared to 200 μM GRGDSPK peptide) (SEQ ID NO: 11). (C) Effect of scFvs on breast cancer cell arrest during blood flow. Metastatic BMS cells, labeled with hydroethidine, were suspended in human blood (anticoagulated with 50 nM PPACK) and perfused over a collagen I matrix at a venous wall shear rate of 50 s^−1. Under these conditions, breast cancer cells arrest by αvβ3 mediated binding to adherent, thrombus forming platelets. Tumor cell adhesion was quantified by image acquisition at 30 predefined positions during blood flow. Left: representative images of platelet signal (thrombi, green fluorescence) and tumor cell signal (red fluorescence) at identical x,y positions. Right: Number of arrested tumor cells in the presence of 3 μM non-function blocking anti αv scFv Bc-20 or function blocking anti αvβ3 scFvs Bc-12 or Bc-15. (D) scFv Bc-15 is internalized by human breast cancer cells and reduces cell proliferation. Left: confocal images of BMS cells incubated for 4 hrs with FITC-Bc-15 at 4° C. (binding) versus 37° C. (allowing internalization). Right: Phase contrast images of BMS cell cultures 4 days after seeding in the presence of 2 μM RGE containing scFv Mut-15, or RGD containing Bc-15. (E) Effect of scFv Bc-12 on the viability of matrix deprived BMS breast cancer cells in ultra-low-adhesion plates in the presence or absence of 3.7 μM scFv, or 14.36 μM camptothecin as apoptosis inducing control. Measurement of apoptosis was based on cytoplasmic histone-associated DNA fragments after 20 hrs.
Cell adhesion and migration. Tumor cell adhesion under stationary conditions was analyzed as detailed earlier (19). Adhesion buffer was Hanks balanced salt solution (HBSS) pH 7.4, 0.5% BSA, 1 mM MgCl2, 0.2 mM MnCl2. For inhibition, cells were incubated for 5 min at RT either with 3 μM scFv or 200 μM GRGDSPK (SEQ ID NO: 11) peptide, then plated in the presence of inhibitor and allowed to attach for 30 min at 37° C. Haptotactic tumor cell migration toward fibrinogen was analyzed in transwell chambers as detailed earlier. Rolli, M., et al., Proc. Natl. Acad. Sci. U.S.A 100: 9482-9487, 2003. […]

BMS breast cancer cells = assay: Antibody internalization (confocal microscopy); assay type: cell-based, human; settings: FITC-labeled scFv, permissive temperature (37° C.)
Procedure: FIGS. 3A, 3B, 3C, 3D, 3E. scFv Bc-12 and Bc-15 inhibit αvβ3 mediated adhesive breast cancer cell functions. (A) Adhesion of BMS human breast cancer cells to fibrinogen (Fg), vitronectin (VN) or type I collagen (Col I) in the absence or presence of 3 μM Bc-12, Bc-15 or their RGE mutants Mut-12, Mut-15, compared to 200 μM GRGDSPK peptide (SEQ ID NO: 11). Protein coating concentrations: 10 μg/ml (VN, Col I) or 20 μg/ml (Fg). Adhesion time: 30 min at 37° C. (B) Effect of scFvs on haptotactic BMS cell migration toward a fibrinogen substrate (16 hrs at 37° C. in transwell chambers with or without 2 μM Bc-12, Bc-15 or their RGE mutants Mut-12 or Mut-15, compared to 200 μM GRGDSPK peptide) (SEQ ID NO: 11). (C) Effect of scFvs on breast cancer cell arrest during blood flow. […] Tumor cell adhesion was quantified by image acquisition at 30 predefined positions during blood flow. Left: representative images of platelet signal (thrombi, green fluorescence) and tumor cell signal (red fluorescence) at identical x,y positions. […]
Antibody internalization. Breast cancer cells grown in chamber slide wells were incubated with 20 μg/ml FITC-labeled scFv in serum free EMEM for 3 h either at 4° C. or 37° C., washed 10 times, fixed and permeabilized with 95% ethanol, stained with propidium iodide, mounted in antifade solution, and analyzed with a laser scanning confocal microscope.

[2] = system: Integrin αIIβ3 mediated adhesive platelet functions; assay: Platelet adhesion and thrombus formation during blood perfusion; assay type: cell-based, human; settings: 3 μM scFv
Procedure: Tumor cell arrest during bloodflow. Breast cancer cell arrest during blood flow and interaction with platelets was measured as described. Felding-Habermann, et al., Proc. Natl. Acad. Sci. U.S.A 98: 1853-1858, 2001. Felding-Habermann et al., J. Biol. Chem. 271: 5892-5900, 1996. Briefly, tumor cells were suspended in human blood anticoagulated with 50 nM PPACK and perfused over a collagen I matrix at a venous wall shear rate of 50 s^−1, 2 dynes/cm^2. Adhesive events and cell interactions were visualized and recorded by fluorescence video microscopy and quantified by image acquisition at 30 predefined positions followed by computerized image analysis (MetaMorph, Universal Imaging). Tumor cells were stained with hydroethidine (red fluorescence) (20 μg/ml, 30 min, 37° C.), washed, and mixed with blood containing 10 μM mepacrine (green fluorescence). Blood cells, tumor cells, and platelets acquired green fluorescence and were visualized at 488/515 nm (excitation/emission). Tumor cells were identified by their unique red fluorescence at 543/590 nm. To test inhibition, tumor cells were incubated with 3 μM scFv for 5 min at 37° C., then mixed into blood, scFv added to 3 μM final concentration and perfused immediately.
In the circulation, metastatic tumor cells are intensely exposed to a cancer patient's immune surveillance, encountering potential function blocking antibodies like Bc-12 and Bc-15. […]

[3] = system: matrix deprived BMS breast cancer cells; assay: Apoptosis of matrix deprived breast cancer cells; assay type: cell-based, human; settings: 3.7 μM scFv, ultra-low-adhesion plates, 20 hrs
Procedure: FIGS. 3A, 3B, 3C, 3D, 3E. scFv Bc-12 and Bc-15 inhibit αvβ3 mediated adhesive breast cancer cell functions. (A) Adhesion of BMS human breast cancer cells to fibrinogen (Fg), vitronectin (VN) or type I collagen (Col I) in the absence or presence of 3 μM Bc-12, Bc-15 or their RGE mutants Mut-12, Mut-15, compared to 200 μM GRGDSPK peptide (SEQ ID NO: 11). Protein coating concentrations: 10 μg/ml (VN, Col I) or 20 μg/ml (Fg). Adhesion time: 30 min at 37° C. (B) Effect of scFvs on haptotactic BMS cell migration toward a fibrinogen substrate (16 hrs at 37° C. in transwell chambers with or without 2 μM Bc-12, Bc-15 or their RGE mutants Mut-12 or Mut-15, compared to 200 μM GRGDSPK peptide) (SEQ ID NO: 11). (C) Effect of scFvs on breast cancer cell arrest during blood flow. Metastatic BMS cells, labeled with hydroethidine, were suspended in human blood (anticoagulated with 50 nM PPACK) and perfused over a collagen I matrix at a venous wall shear rate of 50 s^−1. Under these conditions, breast cancer cells arrest by αvβ3 mediated binding to adherent, thrombus forming platelets. Tumor cell adhesion was quantified by image acquisition at 30 predefined positions during blood flow. Left: representative images of platelet signal (thrombi, green fluorescence) and tumor cell signal (red fluorescence) at identical x,y positions. […]

B1: Bc-12: patient derived human scFv antibody against activated αvβ3 with RGD motif in CDR-H3; cDNA ATCC PTA-6303 (protein)
scFv: MAQVQLVQSGAEVKKPGASVKVSCKASGYTFSNYGITWVRQAPGQGLEWMGWINNGNTHYAQKFQGRVTMTTDTSTSTAYMELRSLRSDDTAVYYCARDPRGDDEPYWGQGTLVTVSSGGGGSGGGGSGGGGSEIVLTQSPLSLPVTLGQPASISCRSSQNLVYSDGNTYLSWFQQRPGQSPRRLIYKVSNRDSGVPDRFSGSGSGTDFTLKISRVEAEDIGVYYCMQGTHWPPRTFGQGTKVEIKRGLGGLVDYKDDDDK
- adhesion to collagen type I [1]: no effect
- attachment to vitronectin [1]: inhibited by Bc-12 and Bc-15, but to a lesser degree
- adhesion to immobilized fibrinogen ([1]; 30 min at 37° C.): efficiently inhibited
- binding and internalization by adherent cells (BMS breast cancer cells): efficiently bound and readily internalized
- adhesive platelet functions [2]: not affected
- viability of matrix deprived cells (apoptosis) [3]: resulted in apoptotic cell death
